The values below come from the FLAb antibody collection (doi:10.1101/2023.12.08.570889).

Changes are numbered by the printed parent chain.

One test concerns the target TNFRSF9, Q07011. In words: Kd (SPR).
Another test deals with IL36R. In words: Kd (SPR).

B1: unnamed (protein)
chain 1: EVQLVQSGAEVKKPGESLRISCKGSGYSFSTYWISWVRQMPGKGLEWMGKIYPGDSYTNYSPSFQGQVTISADKSISTAYLQWSSLKASDTAMYYCSRGSGIFDYWGQGTLVTVSS
chain 2: SYELTQPPSVSVSPGQTASITCSGDNIGDQYAHWYQQKPGQSPVLVIYQDKNRPSGIPERFSGSNSGNTATLTISGTQAMDEADYYCATYTGFGSLAVFGGGTKLTVL
On to B1, for which, in the test with TNFRSF9, Q07011, the Kd came out at 295 nM.

B2: unnamed (protein)
chain 1: B1 chain 1 with S97A, S100V, I102L
chain 2: B1 chain 2
Take B2: in the test with TNFRSF9, Q07011, the Kd worked out at 153 nM.

B3: unnamed (protein)
chain 1: B1 chain 1 with S97A, S100I
chain 2: B1 chain 2
In the test with TNFRSF9, Q07011, B3 had a Kd of 128 nM.

B4: unnamed (protein)
chain 1: B1 chain 1 with S97A, S100V
chain 2: B1 chain 2
B4 had a Kd in the test with TNFRSF9, Q07011 of 158 nM.

B5: unnamed (protein)
chain 1: B1 chain 1 with S97A, S100W, I102V
chain 2: B1 chain 2
The molecule B5 yielded an equilibrium dissociation constant (Kd) with TNFRSF9, Q07011 of 122 nM.

B6: unnamed (protein)
chain 1: B1 chain 1 with S97T, S100V
chain 2: B1 chain 2
Molecule B6 had a Kd with TNFRSF9, Q07011 of 92.3 nM.

B7: unnamed (protein)
chain 1: B1 chain 1 with S97A, S100I, I102L
chain 2: B1 chain 2
Regarding B7, in the test with TNFRSF9, Q07011, the Kd was found to be 175 nM.

B8: unnamed (protein)
chain 1: B1 chain 1 with S97A, S100T, I102L
chain 2: B1 chain 2
B8 gave a Kd with TNFRSF9, Q07011 of 95.6 nM.

B9: unnamed (protein)
chain 1: B1 chain 1 with S97T, S100Y, I102V
chain 2: B1 chain 2
B9 gave an equilibrium dissociation constant (Kd) with TNFRSF9, Q07011 of 96.2 nM.

B10: unnamed (protein)
chain 1: B1 chain 1 with S97T, I102L
chain 2: B1 chain 2
B10: the Kd in the test with TNFRSF9, Q07011 amounted to 225 nM.

B11: unnamed (protein)
chain 1: B1 chain 1 with S100Y, I102V
chain 2: B1 chain 2
Molecule B11 yielded a Kd with TNFRSF9, Q07011 of 130 nM.

B12: unnamed (protein)
chain 1: QVQLVQSGAEVKKPGASVKVSCKASGYTFTSSWIHWVKQAPGQGLEWMGEIYPGNSNTNYNENFRNKVTMTVDTSISTAYMELSRLRSDDTAVYYCTRSRYGEPYFDYWGQGTLVTVSS
chain 2: QIVLTQSPGTLSLSPGERATMTCTASSSVSSSYFHWYQQKPGQAPRLWIYRTSRLASGVPDRFSGSGSGTDFTLTISRLEPEDAATYYCHQFHRSPLTFGAGTKLEIK
The molecule B12 returned a dissociation constant Kd with IL36R of 38.2 nM.

B13: unnamed (protein)
chain 1: B12 chain 1 with T28S, S99V, R100Q
chain 2: B12 chain 2
In turn, B13 registered an equilibrium dissociation constant (Kd) in the test with IL36R of 1.16 nM.

B14: unnamed (protein)
chain 1: B12 chain 1 with S32N, S99V
chain 2: B12 chain 2
Take B14: in the test with IL36R, the Kd was 14.6 nM.

B15: unnamed (protein)
chain 1: B12 chain 1 with S99V, Y101F
chain 2: B12 chain 2
The molecule B15 registered a Kd in the test with IL36R of 1.03 nM.

B16: unnamed (protein)
chain 1: B12 chain 1 with T28S, S99V
chain 2: B12 chain 2
In the test with IL36R, B16 showed a dissociation constant Kd of 0.933 nM.

B17: unnamed (protein)
chain 1: B12 chain 1 with S99V, R100Q
chain 2: B12 chain 2
For the molecule B17, the Kd with IL36R is 2.76 nM.

B18: unnamed (protein)
chain 1: B12 chain 1 with S32N, S99V, E103Y
chain 2: B12 chain 2
Regarding B18, the Kd with IL36R came out at 1.35 nM.

B19: unnamed (protein)
chain 1: B12 chain 1 with S32N, S99V, R100S
chain 2: B12 chain 2
Take B19: the Kd in the test with IL36R came out at 11 nM.

B20: unnamed (protein)
chain 1: B12 chain 1 with S32A, S99V
chain 2: B12 chain 2
In turn, B20 showed a Kd with IL36R of 0.757 nM.
